Results on 12 molecules are retold here after patent US20210101992A1 (KIRA BIOTECH, published 2021).

The target in test [1] is BSA (Bos taurus, UniProt P02769). The test is described as follows: ELISA on coated antigens, absorbance at 450 nm.
Test [2] addresses T1, CD83-His (ectodomain of human CD83 with 6x Histidine tag) (human, UniProt Q01151 20-144).
T1 construct: extracellular domain; Expressed in mammalian cells; also called hCD83-His; recombinant CD83-His; not shown: 6x Histidine tag
T1 sequence (looked up): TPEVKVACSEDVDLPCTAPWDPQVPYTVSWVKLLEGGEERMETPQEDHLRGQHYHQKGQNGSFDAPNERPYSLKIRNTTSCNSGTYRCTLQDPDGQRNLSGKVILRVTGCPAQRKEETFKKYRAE
The test is described as follows: ELISA on coated CD83-His, detection with anti-kappa-HRP antibody, absorbance at 450 nm. As to the method: The reactivity of purified hFab 1F7 to CD83 was analysed by ELISA.

For test [3], the target named is T1, CD83-His (ectodomain of human CD83 with …). Briefly: relative binding of light chain shuffled clones against 1F7; CD83 construct not given.
The target in test [4] is T2, CD83-Fc (human CD83 ectodomain, Fc tagged) (human, UniProt Q01151 20-144).
T2 construct: extracellular domain; The construct is not described beyond 'hCD83 ectodomain (Fc and His tagged)'; also called hCD83-Fc; not shown: Fc tag
T2 sequence (looked up): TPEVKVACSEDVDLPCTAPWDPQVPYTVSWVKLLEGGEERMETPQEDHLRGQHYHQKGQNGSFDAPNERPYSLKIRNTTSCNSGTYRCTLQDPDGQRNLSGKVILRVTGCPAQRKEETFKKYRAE
Briefly: binding of periplasmic hFab's to CD83-Fc, normalised to binding to 9E10.

Chain of BSA (P02769 25-607 limits assumed): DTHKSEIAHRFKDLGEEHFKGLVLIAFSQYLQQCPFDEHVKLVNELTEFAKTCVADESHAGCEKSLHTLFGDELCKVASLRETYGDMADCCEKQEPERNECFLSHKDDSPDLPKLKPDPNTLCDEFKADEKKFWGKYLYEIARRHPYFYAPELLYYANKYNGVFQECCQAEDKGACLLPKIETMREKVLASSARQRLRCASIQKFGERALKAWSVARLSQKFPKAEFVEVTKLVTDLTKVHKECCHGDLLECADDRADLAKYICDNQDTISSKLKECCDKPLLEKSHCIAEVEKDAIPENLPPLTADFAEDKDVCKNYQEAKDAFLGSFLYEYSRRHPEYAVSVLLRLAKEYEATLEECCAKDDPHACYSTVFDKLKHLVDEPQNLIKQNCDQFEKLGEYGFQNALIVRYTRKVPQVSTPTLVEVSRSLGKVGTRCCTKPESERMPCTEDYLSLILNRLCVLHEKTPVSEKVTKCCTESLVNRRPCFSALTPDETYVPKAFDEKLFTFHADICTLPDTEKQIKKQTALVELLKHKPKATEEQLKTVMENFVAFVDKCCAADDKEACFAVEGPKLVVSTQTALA

B1: hFab 1F7 (Fab, V domains shown)
VH: EVQLVQSGGAVVQPGRSLRLSCAASGFTFSTYGMHWVRQAPGKGLEWVAAVSYDGSNKYYADFVKGRFTISRDNPKNTLYLQMNSLRADDTAVYYCARRGGLDIWGQGTTVTVSS
VL: LTQPPPASGTPGQRVTISCSGSSSNIGSNTVNWYQQLPGTAPKLLIYGNDQRPSGVPDRFSASKSGTSASLAISGLQSEDEAHYYCAAWDGSLNGGVIFGGGTKVTLG
notes: Human Fab from a phage display library; The heavy chain carries a 6x His tag and a myc tag, and the light chain was detected as kappa; also called 1F7 hFab; 1F7 Fab
By EC50 (read off the curve) is commonly meant the concentration that produces a half-maximal response. Read a low EC50 (read off the curve) as higher potency in that assay. With B1, the binding result in test [1] is “no binding”. Besides, in test [2], the 50% effective concentration (EC50 (read off the curve)) was approximately 2 µg/mL.

B2: hFab4.5 (Fab, V domains shown)
VH: EVQLVQSGGAVVQPGRSLRLSCAASGFTFSTYGMHWVRQAPGKGLEWVAAVSYDGSNKYYADFVKGRFTISRDNPKNTLYLQMNSLRADDTAVYYCARRGGLDIWGQGTTVTVSS
VL: LTQSPLSLPVTLGQPASISCKSSQSLVDSDGNTYLNWFQQRPGQSPRRLIYKVSNRDSGVPDRFSGSGSGTDFTLKISRVEAEDVGVYYCMQGTHWPRTFGQGTKVEIKR
notes: Light chain shuffled variant of 1F7, expressed as hFab in the E. coli periplasm
With B2, the binding result in test [3] and in test [4] was “binds” throughout.

B3: hFab4.8 (Fab, V domains shown)
VH: EVQLVQSGGAVVQPGRSLRLSCAASGFTFSTYGMHWVRQAPGKGLEWVAAVSYDGSNKYYADFVKGRFTISRDNPKNTLYLQMNSLRADDTAVYYCARRGGLDIWGQGTTVTVSS
VL: MTQSPSSLSASVGDRVTITCQASQDISNYLNWYQQKPGKAPKLLIYDASNLETGVPSRFSGSGSGTDFTFTISSLQPDDFATYYCQQTYSWPRTFGQGTKLEIKR
notes: as for B2
Regarding B3, the binding result in test [3] and in test [4] was “binds” throughout.

B4: hFab4.10 (Fab, V domains shown)
VH: EVQLVQSGGAVVQPGRSLRLSCAASGFTFSTYGMHWVRQAPGKGLEWVAAVSYDGSNKYYADFVKGRFTISRDNPKNTLYLQMNSLRADDTAVYYCARRGGLDIWGQGTTVTVSS
VL: LTQPPSASGTPGQGVTISCRGSTSNIGNNVVNWYQHVPGSAPKLLIWSNIQRPSGIPDRFSGSKSGTSASLAISGLQSEDEAVYYCAVWDDGLAGWVFGGGTTVTVLS
notes: Light chain shuffled variant of 1F7
Take B4: the binding result in test [3] is given as “binds”.

B5: hFab4.1 (Fab, V domains shown)
VH: EVQLVQSGGAVVQPGRSLRLSCAASGFTFSTYGMHWVRQAPGKGLEWVAAVSYDGSNKYYADFVKGRFTISRDNPKNTLYLQMNSLRADDTAVYYCARRGGLDIWGQGTTVTVSS
VL: VTQPPSASGTPGQRVTISCSGSSSNIGTNPVNWYQQLPGTAPKLLIYTTDQRPSGVPDRFSGSKSGTSASLAISGLQSEDEADYYCAAWDDSLSGLYVFGTGTKVTVLG
notes: as for B4
For B5, the binding result in test [3] is “binds”.

B6: hFab4.9 (Fab, V domains shown)
VH: EVQLVQSGGAVVQPGRSLRLSCAASGFTFSTYGMHWVRQAPGKGLEWVAAVSYDGSNKYYADFVKGRFTISRDNPKNTLYLQMNSLRADDTAVYYCARRGGLDIWGQGTTVTVSS
VL: MTQSPSSLSASVGHPVTITCRASQSLISYLNWYHQKPGKAPKLLIYAASILQSGVPSRFSGSGSGTDFTLTISSLQPENFASYYCQHTDSFPRTFGHGTKVEIKR
notes: as for B4
As for B6, the binding result in test [3] was “binds”.

B7: hFab4.2 (Fab, V domains shown)
VH: EVQLVQSGGAVVQPGRSLRLSCAASGFTFSTYGMHWVRQAPGKGLEWVAAVSYDGSNKYYADFVKGRFTISRDNPKNTLYLQMNSLRADDTAVYYCARRGGLDIWGQGTTVTVSS
VL: MTHTPLSLSVTPGQPASISCKSSQSLLHSDGKTYLYWYLQRPGQSPQPLIYEVSNRFSGVPDRFSGSGSGTDFTLKISRVEAEDVGVYYCMQSLQLWTFGQGTKVEIKR
notes: as for B4
Turning to B7, the binding result in test [3] was “binds”.

B8: hFab4.12 (Fab, V domains shown)
VH: EVQLVQSGGAVVQPGRSLRLSCAASGFTFSTYGMHWVRQAPGKGLEWVAAVSYDGSNKYYADFVKGRFTISRDNPKNTLYLQMNSLRADDTAVYYCARRGGLDIWGQGTTVTVSS
VL: MTQAPVVSVALEQTVRITCQGDSLAIYYDFWYQHKPGQAPVLVIYGKNNRPSGIPHRFSGSSSNTDSLTITGAQAEDEADYYCNSRDSSGNHWVFGGGTNLTVLG
notes: as for B4
B8: the binding result in test [3] is given as “binds”.

B9: hFab4.4 (Fab, V domains shown)
VH: EVQLVQSGGAVVQPGRSLRLSCAASGFTFSTYGMHWVRQAPGKGLEWVAAVSYDGSNKYYADFVKGRFTISRDNPKNTLYLQMNSLRADDTAVYYCARRGGLDIWGQGTTVTVSS
VL: MTQSPLSLPVTLGQPASISCRSSQSLVDSAGNTFLHWFHQRPGQSPRRLIYKVSNRDSGVPDRFSGSGSGTDFTLKISRVEAEDVGVYYCMQGTHWPRTFGQGTKVEIKR
notes: as for B2
As to B9, the binding result in test [3] and in test [4] was “binds” throughout.

B10: hFab4.7 (Fab, V domains shown)
VH: EVQLVQSGGAVVQPGRSLRLSCAASGFTFSTYGMHWVRQAPGKGLEWVAAVSYDGSNKYYADFVKGRFTISRDNPKNTLYLQMNSLRADDTAVYYCARRGGLDIWGQGTTVTVSS
VL: MTQSPLSLPVTLGQPASISCRSSQSLVHSDGNMYLNWFQQRPGQSPRRLIYKVSNRDSGVPDRFSGSGSGTDFTLKISRVEAEDVGVYYCMQATQPTWTFGQGTKLEIKR
notes: as for B4
As to B10, the binding result in test [3] is “binds”.

B11: hFab4.3 (Fab, V domains shown)
VH: EVQLVQSGGAVVQPGRSLRLSCAASGFTFSTYGMHWVRQAPGKGLEWVAAVSYDGSNKYYADFVKGRFTISRDNPKNTLYLQMNSLRADDTAVYYCARRGGLDIWGQGTTVTVSS
VL: MTQSPLSLPVTLGQPASISCRSSQSLIHSDGNTYLDWFQQRPGQSPRRLIYKVSNRDSGVPDRFSGSGSGTDFTLRISRVEAEDIGVYYCMQATHWPRTFGQGTKVEIKR
notes: as for B4
Consider B11, for which the binding result in test [3] is “binds”.

B12: hFab4.18 (Fab, V domains shown)
VH: EVQLVQSGGAVVQPGRSLRLSCAASGFTFSTYGMHWVRQAPGKGLEWVAAVSYDGSNKYYADFVKGRFTISRDNPKNTLYLQMNSLRADDTAVYYCARRGGLDIWGQGTTVTVSS
VL: LTQSPLSLPVTLGQPASISCKSNQSLVHSDGNTYLNWFQQRPGQSPRRLIYKVSNRDSGVPDRFSGSGSGTDFTLKINRVEAEDVGVYYCMQGTQWPRTFGQGTKLDIKR
notes: as for B4
Take B12: in test [3], the binding result was “binds”.
